Experiment [1] deals with T1, BVDV NS4B-His recombinant protein (Bovine viral diarrhea virus 1, GenBank …).
T1 construct: also called recombinant NS4B protein
The experiment is described as follows: ELISA; iELISA; NS4B-His or the control BVDV-NS5A-His as coating antigen; the nine nanobodies added; anti-E-tag detection. The settings on record: one partner purified.

Experiment [2] has as its target T2, BVDV NS4B-His recombinant protein (Bovine viral diarrhea virus 1, GenBank …, UniProt A0A068L3P0).
T2 construct: also called recombinant NS4B protein
The experiment is described as follows: ELISA; iELISA; 96-well plates coated with NS4B protein (400 ng/well); incubated with TAT-Nb91 or Nb91; anti-camel serum (1:2,000) and HRP-conjugated secondary antibody; OD 450 nm. The settings on record: both partners purified. Background: In an ELISA, binding on a coated surface is turned into a signal by an enzyme label.

B1: Nb27 (VHH)
VHH: LQESGGGSVQAGGSLKLSCAASGPIFRRCGMGWYRQAPGKEREVVSGINDAGTASYADSVKGRFTISQDNAKNMLYLQMNSLKTEDTAVYYCAGRKYYDVGNYCSVDLYWGQGTQVTVSS
Consider B1, for which, in experiment [1], the binding result is reported as “binds”.

B2: Nb67 (VHH)
VHH: LQESGGGLVQAGGSLRLSCTASGLNVDNYEMGWFRQAPGKEREGIAQISCSGAMTYYADSVKGRFTISRDNAKKTLYLQMNSLTPEDTAMYYCAAQTRVCGLWTSRGPEMESDFDAWGQGTQVTVSS
In the case of B2, in experiment [1], the binding result was “binds”.

B3: Nb85 (VHH)
VHH: LQESGGGSVQAGGSLRLSCVSSEYSGTIFAMGWFRQAPGKEREGVAVVDSAITKHYADSVKGRFTISRDNAKNRLDLQMDSLKPEDTGMYYCARSRGYLAGASATLRPTNYDDWGQGTQVTVSS
Take B3: in experiment [1], the binding result is on record as “binds”.

B4: TAT-Nb91 recombinant protein (VHH)
VHH: LQESGGGSVQAGGSLKLSCAASGSTFNSCGMGWYRQVPGKERELVSTISDSDTTTYADAVKGRFSISQDKTKNTLYLQMNSLKTEDTARYYCAARSIFAERVCSIHFDSWGQGTQVTVSS
notes: TAT cell-penetrating peptide from HIV; Linker; VHH of Nb91, as the VHH of m11; About 19 kDa; The primers carry HindIII and XhoI sites; also called TAT-Nb91-His; not shown: His6, C-terminal, kept
For B4, the binding result in experiment [2] is reported as “binds”.

B5: Nb72 (VHH)
VHH: LQKAGGVSEQAGASLRLSCVLSARIYGRCCLLWFRQDPGNREGISSINTDGKTSYTDSGKDRFTVSQYTDYNILQLQMNSLKPDDTAVYYCGATERVGDICTEYKYRGQGTQVTVSS
Consider B5, for which, in experiment [1], the binding result was “binds”.

B6: Nb70 (VHH)
VHH: LQESGGGSVQAGGSLRLSCTASTFTYISLYMGWFRQAPGKEREGVAGIYAGGGDTYYADSVKGRFTISQDDAKRTVYLQMNSLKPEDTAMYYCAADRGPSRWDFRSWGQGTQVTVSS
As for B6, the binding result in experiment [1] was “binds”.

The record behind these values is article PMC12741062 (Frontiers in Immunology, 2025).
